From PMC7114241

Legend:
Assay in all cases: FRET
Ac-NSTSQ-H = biological target: Ac-NSTSQ-H
Ac-NSFSQ-H = biological target: Ac-NSFSQ-H
Ac-ESTLQ-H = biological target: Ac-ESTLQ-H

B1: SARS-CoV main protease (Mpro), P0C6X7 (protein)
chain: SGFRKMAFPSGKVEGCMVQVTCGTTTLNGLWLDDTVYCPRHVICTAEDMLNPNYEDLLIRKSNHSFLVQAGNVQLRVIGHSMQNCLLRLKVDTSNPKTPKYKFVRIQPGQTFSVLACYNGSPSGVYQCAMRPNHTIKGSFLNGSCGSVGFNIDYDCVSFCYMHHMELPTGVHAGTDLEGKFYGPFVDRQTAQAAGTDTTITLNVLAWLYAAVINGDRWFLNRFTTTLNDFNLVAMKYNYEPLTQDHVDILGPLSAQTGIAVLDMCAALKELLQNGMNGRTILGSTILEDEFTPFDVVRQCSGVTFQ
Which Ki (Ac-NSTSQ-H) does the source give for B1 here?
The Ki was 41 µM.

And the Ki (Ac-NSFSQ-H)?
The Ki was 72.7 µM.

And the Ki (Ac-ESTLQ-H)?
The Ki was 8.27 µM.
